In US20240239894A1, “THERAPEUTIC BINDING MOLECULES” (MedImmune Limited, priority 2020, published 2024):

Legend:
HT29-huB7-H4 Clone 26 = test: Live cell imaging internalization; type: cell-based, human; conditions: 5 μg/mL Alexa Fluor 568 conjugate
Experimental: (§1) The internalization and intracellular trafficking properties of antibody E02-INT was evaluated using a quantitative live cell imaging assay in MX-1 human breast cancer cells and HT29 huB7-H4 Clone 26 human colon cancer cells overexpressing B7-H4.

MX-1 = test: Live cell imaging internalization; type: cell-based, human; conditions: 5 μg/mL Alexa Fluor 568 conjugate
Experimental: as §1

HT29 hB7H4 clone 4 = test: E02-GL MESF on cell line; type: cell-based, human
HCC1954 = test: E02-GL MESF on cell line; type: cell-based
HCC1569 = test: E02-GL MESF on cell line; type: cell-based
[1] = tested on: B7-H4 expressing versus WT HT29, CT26 and 4T1 tumours; test: In vivo imaging of 800CW labelled antibody; set-up: species or system mice; conditions: 800CW label; HT29 days 3, 7, 14; CT26 days 3 and 7; 4T1 day 7
Source text: Antibody clones (e.g. E02_GL) were labelled with 800CW (LI-COR Biosciences). 800 CW labelled R347 was used in control experiments.
B7-H4 expressing CT26/4TI/HT29 cancer cells were grafted (e.g. inoculated subcutaneously) to the left flank […] nude mice (Charles River Laboratories, Wilmington, MA), and non-B7-H4 expressing CT26/4TI/HT29 cancer cells were grafted to the right flank to provide an internal control. Mice were kept for a week to develop tumours, 800CW-labelled E02_GL was injected. 800CW-labelled R347 was injected into control mice. […]
In vivo imaging studies were performed as outlined under Materials and Methods (above), namely with 800CW labelled antibody (E02_GL). “E02-GL” antibody has the CDR/VH sequences (e.g. corresponds to) of ZY0EQD-E02 (“GL” means the antibody has been germlined).

[2] = tested on: live cells (B7-H4 on membrane); test: Internalisation kinetics in live cells (AF647 label); type: cell-based; conditions: AF647 conjugate; co-visualisation with Lamp1-AF488
Experimental: E02-GL conjugated to fluorescence marker AF647 was used to treat live cells. At 0 mins following treatment, clusters of fluorescence were noted on the cell membranes (indicative of binding to B7-H4 present on the membrane).

OVCAR4 = test: E02-GL MESF on cell line; type: cell-based, human
HT29 hB7H4 clone 44 = test: E02-GL MESF on cell line; type: cell-based, human
Toxicology study = type: in vivo; conditions: male cynomolgus monkeys, N=2/dose level
Experimental: E02-GL-SG3249 was administered to male cynomolgus monkeys (N═2/dose level). The “E02-GL” antibody has the CDR/VH sequences (e.g. corresponds to) of ZY0EQD-E02 (“GL” means the antibody has been germlined).

HCC1954 tumour xenograft = test: gamma H2AX immunohistochemistry in tumour xenograft; type: in vivo; conditions: up to 10 days following treatment
Experimental: Tumour xenograft models were generated (using HCC1954 cells), and treated with E02-GL-SG3249. “E02-GL” antibody has the CDR/VH sequences (e.g. corresponds to) of ZY0EQD-E02 (“GL” means the antibody has been germlined).
Immunohistochemistry was then performed to determine gamma H2AX (marker of double strand breaks) following treatment.

HBCx-9 = test: PDX model; type: in vivo; conditions: HBCx-9, Breast (Triple negative); 0.3 mg/kg vs vehicle
Source text: (§2) Patient derived xenograft models were generated using cancer cell lines with varying levels of B7-H4 expression, as outlined in Table 16. […] “E02-GL” antibody has the CDR/VH sequences (e.g. corresponds to) of ZY0EQD-E02 (“GL” means the antibody has been germlined).

CTG-1106 = test: PDX model; type: in vivo; conditions: CTG-1106, Breast (Triple negative); 0.3 mg/kg vs vehicle
Source text: as §2

T168 = test: PDX model; type: in vivo; conditions: T168, Breast (HR+); 0.3 mg/kg vs vehicle
Source text: as §2

CTG-0992 = test: PDX model; type: in vivo; conditions: CTG-0992, Ovarian; 0.3 mg/kg vs vehicle
Source text: as §2

CTG-1086 = test: PDX model; type: in vivo; conditions: CTG-1086, Ovarian; 0.3 mg/kg vs vehicle
Source text: as §2

T272 = test: PDX model; type: in vivo; conditions: T272, Breast (HR+); 0.3 mg/kg vs vehicle
Source text: as §2

CTG-052 = test: PDX model; type: in vivo; conditions: CTG-052, Breast (Triple negative); 0.3 mg/kg vs vehicle
Source text: as §2

CTG-012 = test: PDX model; type: in vivo; conditions: CTG-012, Breast (Triple negative); 0.3 mg/kg vs vehicle
Source text: as §2

T330 = test: PDX model; type: in vivo; conditions: T330, Breast (Triple negative); 0.3 mg/kg vs vehicle
Source text: as §2

HBCx-11 = test: PDX model; type: in vivo; conditions: HBCx-11, Breast (Triple negative); 0.3 mg/kg vs vehicle
Source text: as §2

HCC1569 cells = test: Western blot DNA damage response; type: cell-based; conditions: 100 ng/ml ADC, 100 pM SG3199
Experimental: Following treatment of HCC1569 cells with E02-GL-SG3249, and SG3199 as a control (at 100 ng/ml and 100 pM, respectively), lysate was prepared and subjected to western blot analysis with antibodies to pATR, ATR, pChk1, Chk1, pRPA32, RPA32, pATM, ATM (all involved in ATR signalling), pChk2, ChK2, pKAP1, KAP1 (all involved in ATM signalling), pDNA-PK, DNA-PK, pH2AX, H2AX, pBRCA1, BRCA1 (all involved in DNA double strand break), pFANCD2 and GAPDH (load control). Negative controls were PBS treatment alone.

[3] = tested on: HT29 WT (not expressing B7-H4); test: Bystander killing in vitro (conditioned medium); type: cell-based, human; conditions: donor cells treated 4 days
Experimental: HT29 B7-H4 expressing cells were treated with E02-GL-SG3249 for 4 days, after which the conditioned medium was removed and added to HT29 WT (i.e. not expressing B7-H4).

B1: E02-GL: germlined ZY0EQD-E02, VH SEQ ID NO: 45, VL SEQ ID NO: 34; antibody intermediate of E02-GL-SG3932 (antibody, V domains shown)
VH: QVQLQQWGAGLLKPSETLSLACTVYGGSFSGYYWNWIRQPPGKGLEWIGEINHSGSTSYNPSLKSRVTISVDTSKNQFSLKLSSVTAADTAVYYCARVLYNWNVDSWGQGTLVTVSS
VL: DIQMTQSPSSLSASVGDRVTITCRASQDIRNDVGWYQQKPGKAPKRLIYAASRLQSGVPSRFSGSGSGTEFTLTISSLQPEDFATYYCLQHNSYPRTFGQGTKVEIK
HT29-huB7-H4 Clone 26
  internalization half-life: 127 (±35 SD) minutes
MX-1
  internalization half-life: 102 (±18 SD) minutes
HT29 hB7H4 clone 4
  E02-GL MESF: 71,928 MESF
HCC1954
  E02-GL MESF: 47,173 MESF
HCC1569
  E02-GL MESF: 112,608 MESF
[1]
  localization to the B7-H4 expressing tumour compared to the WT tumour: Preferential localization
[2]
  internalisation of bound antibody: internalised by endocytosis
OVCAR4
  E02-GL MESF: 261,997 MESF
HT29 hB7H4 clone 44
  E02-GL MESF: 147,125 MESF

B2: E02-GL-SG3249: clone E02-GL (Maia heavy chain backbone) conjugated to the PBD cytotoxin SG3249 (conjugate)
heavy: QVQLQQWGAGLLKPSETLSLACTVYGGSFSGYYWNWIRQPPGKGLEWIGEINHSGSTSYNPSLKSRVTISVDTSKNQFSLKLSSVTAADTAVYYCARVLYNWNVDSWGQGTLVTVSSASTKGPSVFPLAPSSKSTSGGTAALGCLVKDYFPEPVTVSWNSGALTSGVHTFPAVLQSSGLYSLSSVVTVPSSSLGTQTYICNVNHKPSNTKVDKRVEPKSCDKTHTCPPCPAPELLGGPSCVFLFPPKPKDTLMISRTPEVTCVVVDVSHEDPEVKFNWYVDGVEVHNAKTKPREEQYNSTYRVVSVLTVLHQDWLNGKEYKCKVSNKALPAPIEKTISKAKGQPREPQVYTLPPSREEMTKNQVSLTCLVKGFYPSDIAVEWESNGQPENNYKTTPPVLDSDGSFFLYSKLTVDKSRWQQGNVFSCSVMHEALHNHYTQKSLSLSPGK
light: DIQMTQSPSSLSASVGDRVTITCRASQDIRNDVGWYQQKPGKAPKRLIYAASRLQSGVPSRFSGSGSGTEFTLTISSLQPEDFATYYCLQHNSYPRTFGQGTKVEIKRTVAAPSVFIFPPSDEQLKSGTASVVCLLNNFYPREAKVQWKVDNALQSGNSQESVTEQDSKDSTYSLSSTLTLSKADYEKHKVYACEVTHQGLSSPVTKSFNRGEC
Toxicology study
  toxicities: No abnormal toxicities
HCC1954 tumour xenograft
  gamma H2AX positive tumour cells: Increased numbers of gamma H2AX positive tumour cells
HBCx-9
  % Tumour Growth Inhibition (TGI): 70%
CTG-1106
  % Tumour Growth Inhibition (TGI): 30%
T168
  % Tumour Growth Inhibition (TGI): 60%
CTG-0992
  % Tumour Growth Inhibition (TGI): 0%
CTG-1086
  % Tumour Growth Inhibition (TGI): 20%
T272
  % Tumour Growth Inhibition (TGI): 30%
CTG-052
  % Tumour Growth Inhibition (TGI): 30%
CTG-012
  % Tumour Growth Inhibition (TGI): 90%
T330
  % Tumour Growth Inhibition (TGI): 70%
HBCx-11
  % Tumour Growth Inhibition (TGI): 80%
HCC1569 cells
  DNA damage response signalling (ATR, ATM, double strand break markers): leads to double strand DNA breaks
[3]
  viability of HT29 WT after conditioned medium from treated HT29 B7-H4 expressing cells: rapid decrease in cell viability
